# Columns and labels:
# Assay type in all cases: in vivo
# [1] = system: Arabidopsis thaliana T1 plants; assay: saflufenacil tolerance of transgenic Arabidopsis thaliana T1 plants (spray, grade of pesticide damage); conditions: for The grade of pesticide damage/plant: grade 0 / The grade of pesticide damage/plant: grade 1 / The grade of pesticide damage/plant: grade 2 / The grade of pesticide damage/plant: grade 3: 7 DAT, number of plants of 24 per genotype, grades
# How it was run: (§1)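 T1 lines expressing individual PPO variants, control-vector and wild-type plants (24 per genotype) were sprayed 18 days after sowing: oxyfluorfen 180/720, saflufenacil 25/100, flumioxazin 60/240, sulfentrazone 450/900 g ai/ha, or water. Damage graded 0–3 from injured leaf area at 7 DAT.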
# [2] = system: Arabidopsis thaliana T1 plants; assay: flumioxazin tolerance of transgenic Arabidopsis thaliana T1 plants (spray, grade of pesticide damage); conditions: for The grade of pesticide damage/plant: grade 0 / The grade of pesticide damage/plant: grade 1 / The grade of pesticide damage/plant: grade 2 / The grade of pesticide damage/plant: grade 3: 7 DAT, number of plants of 24 per genotype, grades
# How it was run: as §1
# [3] = system: transgenic soybean plants; assay: flumioxazin tolerance of transgenic soybean plants (spray, grade of pesticide damage); conditions: for The grade of pesticide damage/plant: grade 0 / The grade of pesticide damage/plant: grade 1 / The grade of pesticide damage/plant: grade 2 / The grade of pesticide damage/plant: grade 3: 7 DAT, number of plants of 16 per genotype, grades
# [4] = system: transgenic soybean plants; assay: oxyfluorfen tolerance of transgenic soybean plants (spray, grade of pesticide damage); conditions: for The grade of pesticide damage/plant: grade 0 / The grade of pesticide damage/plant: grade 1 / The grade of pesticide damage/plant: grade 2 / The grade of pesticide damage/plant: grade 3: 7 DAT, number of plants of 16 per genotype, grades
# [5] = system: Arabidopsis thaliana T1 plants; assay: sulfentrazone tolerance of transgenic Arabidopsis thaliana T1 plants (spray, grade of pesticide damage); conditions: for The grade of pesticide: grade 0 / The grade of pesticide: grade 1 / The grade of pesticide: grade 2 / The grade of pesticide: grade 3: 7 DAT, number of plants of 24 per genotype, grades
# How it was run: as §1
# [6] = system: Arabidopsis thaliana T1 plants; assay: oxyfluorfen tolerance of transgenic Arabidopsis thaliana T1 plants (spray, grade of pesticide damage); conditions: for The grade of pesticide damage/plant: grade 0 / The grade of pesticide damage/plant: grade 1 / The grade of pesticide damage/plant: grade 2 / The grade of pesticide damage/plant: grade 3: 7 DAT, number of plants of 24 per genotype, grades
# How it was run: as §1
# [7] = system: transgenic soybean plants; assay: saflufenacil tolerance of transgenic soybean plants (spray, grade of pesticide damage); conditions: for The grade of pesticide damage/plant: grade 0 / The grade of pesticide damage/plant: grade 1 / The grade of pesticide damage/plant: grade 2 / The grade of pesticide damage/plant: grade 3: 7 DAT, number of plants of 16 per genotype, grades
molecule,measurement,setting,value
"PPO-APA: nucleotide sequence encoding Arsenophonus protoporphyrinogen oxidase PPO-AP (SEQ ID NO:65), Arabidopsis thaliana/soybean common codon usage bias (nucleic acid, The nucleotide sequence of PPO-APA) DNA: ATGTCTTACCTGCTGTTATATTCAGGGAAAAATGGACAAACCAAGAAGATCATTCTGAAAATAACAGAGTATCTTCGAAAAGAAGGAAAGCAATGTGATGTTAGAGATTTGAACATGGATAAGAACTTCAACCTTTCTGTATATCAGAAGGTGCTCGTTGGTGCCTCGATAAGATATGGTCATTTCAATCCCGCAGTCCTCAATTTTGCTCAGAATCACCAAAAGGAGTTAAACACTATTCAATCAGCTTTCTTTGGCGTGAATTTGATGGCTCGTAAACAAGGAAAAGATACTCCTGAGACAAATGTGTATGTGAGGAAGTTTCTTGCCAAAATTCCATGGCAACCAACAATCACCAATGTTTTCAGTGGAGCGTTGAGGTATCCTCAGTACAAATGGCTTGACCGGATAATGATTCAGTTTATCATGAAGATTACTGGTGGTGAAACAAACAAAAACAAGGAAGTTGAATATACTGATTGGGAAAAGGTAGAGTACTTTGCAAGAGAGTTTAATGCTTTGAAATGA",The grade of pesticide damage/plant: grade 0,[1]; saflufenacil 25 g ai/ha (1×),0 plant
same,The grade of pesticide damage/plant: grade 1,[1]; saflufenacil 25 g ai/ha (1×),0 plant
same,The grade of pesticide damage/plant: grade 2,[1]; saflufenacil 25 g ai/ha (1×),0 plant
same,The grade of pesticide damage/plant: grade 3,[1]; saflufenacil 25 g ai/ha (1×),24 plant
same,The grade of pesticide damage/plant: grade 0,[1]; saflufenacil 100 g ai/ha (4×),0 plant
same,The grade of pesticide damage/plant: grade 1,[1]; saflufenacil 100 g ai/ha (4×),0 plant
same,The grade of pesticide damage/plant: grade 2,[1]; saflufenacil 100 g ai/ha (4×),0 plant
same,The grade of pesticide damage/plant: grade 3,[1]; saflufenacil 100 g ai/ha (4×),24 plant
same,tolerance to saflufenacil,[1]; saflufenacil at four-fold field concentration (100 g ai/ha),no tolerance
same,tolerance to saflufenacil,[1]; saflufenacil at one-fold field concentration (25 g ai/ha),no tolerance
same,The grade of pesticide damage/plant: grade 0,[2]; flumioxazin 60 g ai/ha (1×),0 plant
same,The grade of pesticide damage/plant: grade 1,[2]; flumioxazin 60 g ai/ha (1×),0 plant
same,The grade of pesticide damage/plant: grade 2,[2]; flumioxazin 60 g ai/ha (1×),0 plant
same,The grade of pesticide damage/plant: grade 3,[2]; flumioxazin 60 g ai/ha (1×),24 plant
same,The grade of pesticide damage/plant: grade 0,[2]; flumioxazin 240 g ai/ha (4×),0 plant
same,The grade of pesticide damage/plant: grade 1,[2]; flumioxazin 240 g ai/ha (4×),0 plant
same,The grade of pesticide damage/plant: grade 2,[2]; flumioxazin 240 g ai/ha (4×),0 plant
same,The grade of pesticide damage/plant: grade 3,[2]; flumioxazin 240 g ai/ha (4×),24 plant
same,tolerance to flumioxazin,[2]; flumioxazin at different concentrations (60 and 240 g ai/ha),basically no tolerance
same,The grade of pesticide damage/plant: grade 0,[3]; flumioxazin 120 g ai/ha (2×),0 plant
same,The grade of pesticide damage/plant: grade 1,[3]; flumioxazin 120 g ai/ha (2×),0 plant
same,The grade of pesticide damage/plant: grade 2,[3]; flumioxazin 120 g ai/ha (2×),0 plant
same,The grade of pesticide damage/plant: grade 3,[3]; flumioxazin 120 g ai/ha (2×),16 plant
same,The grade of pesticide damage/plant: grade 0,[3]; flumioxazin 240 g ai/ha (4×),0 plant
same,The grade of pesticide damage/plant: grade 1,[3]; flumioxazin 240 g ai/ha (4×),0 plant
same,The grade of pesticide damage/plant: grade 2,[3]; flumioxazin 240 g ai/ha (4×),0 plant
same,The grade of pesticide damage/plant: grade 3,[3]; flumioxazin 240 g ai/ha (4×),16 plant
same,tolerance to flumioxazin,"[3]; soybean, flumioxazin at different concentrations (120 and 240 g ai/ha)",no flumioxazin tolerance
same,The grade of pesticide damage/plant: grade 0,[4]; oxyfluorfen 360 g ai/ha (2×),0 plant
same,The grade of pesticide damage/plant: grade 1,[4]; oxyfluorfen 360 g ai/ha (2×),0 plant
same,The grade of pesticide damage/plant: grade 2,[4]; oxyfluorfen 360 g ai/ha (2×),8 plant
same,The grade of pesticide damage/plant: grade 3,[4]; oxyfluorfen 360 g ai/ha (2×),8 plant
same,The grade of pesticide damage/plant: grade 0,[4]; oxyfluorfen 720 g ai/ha (4×),0 plant
same,The grade of pesticide damage/plant: grade 1,[4]; oxyfluorfen 720 g ai/ha (4×),0 plant
same,The grade of pesticide damage/plant: grade 2,[4]; oxyfluorfen 720 g ai/ha (4×),0 plant
same,The grade of pesticide damage/plant: grade 3,[4]; oxyfluorfen 720 g ai/ha (4×),16 plant
same,tolerance to oxyfluorfen,"[4]; soybean, oxyfluorfen at four-fold field concentration (720 g ai/ha)",no tolerance
same,The grade of pesticide: grade 0,[5]; sulfentrazone 450 g ai/ha (1×),0
same,The grade of pesticide: grade 1,[5]; sulfentrazone 450 g ai/ha (1×),0
same,The grade of pesticide: grade 2,[5]; sulfentrazone 450 g ai/ha (1×),0
same,The grade of pesticide: grade 3,[5]; sulfentrazone 450 g ai/ha (1×),24
same,The grade of pesticide: grade 0,[5]; sulfentrazone 900 g ai/ha (2×),0
same,The grade of pesticide: grade 1,[5]; sulfentrazone 900 g ai/ha (2×),0
same,The grade of pesticide: grade 2,[5]; sulfentrazone 900 g ai/ha (2×),0
same,The grade of pesticide: grade 3,[5]; sulfentrazone 900 g ai/ha (2×),24
same,tolerance to sulfentrazone,[5]; sulfentrazone at different concentrations (450 and 900 g ai/ha),no tolerance
same,The grade of pesticide damage/plant: grade 0,[6]; oxyfluorfen 180 g ai/ha (1×),0 plant
same,The grade of pesticide damage/plant: grade 1,[6]; oxyfluorfen 180 g ai/ha (1×),0 plant
same,The grade of pesticide damage/plant: grade 2,[6]; oxyfluorfen 180 g ai/ha (1×),0 plant
same,The grade of pesticide damage/plant: grade 3,[6]; oxyfluorfen 180 g ai/ha (1×),24 plant
same,The grade of pesticide damage/plant: grade 0,[6]; oxyfluorfen 720 g ai/ha (4×),0 plant
same,The grade of pesticide damage/plant: grade 1,[6]; oxyfluorfen 720 g ai/ha (4×),0 plant
same,The grade of pesticide damage/plant: grade 2,[6]; oxyfluorfen 720 g ai/ha (4×),0 plant
same,The grade of pesticide damage/plant: grade 3,[6]; oxyfluorfen 720 g ai/ha (4×),24 plant
same,tolerance to oxyfluorfen,"[6]; oxyfluorfen at different concentrations (180 and 720 g ai/ha), compared with the control vector and CK",basically no tolerance
same,The grade of pesticide damage/plant: grade 0,[7]; saflufenacil 50 g ai/ha (2×),0 plant
same,The grade of pesticide damage/plant: grade 1,[7]; saflufenacil 50 g ai/ha (2×),0 plant
same,The grade of pesticide damage/plant: grade 2,[7]; saflufenacil 50 g ai/ha (2×),8 plant
same,The grade of pesticide damage/plant: grade 3,[7]; saflufenacil 50 g ai/ha (2×),8 plant
same,The grade of pesticide damage/plant: grade 0,[7]; saflufenacil 100 g ai/ha (4×),0 plant
same,The grade of pesticide damage/plant: grade 1,[7]; saflufenacil 100 g ai/ha (4×),0 plant
same,The grade of pesticide damage/plant: grade 2,[7]; saflufenacil 100 g ai/ha (4×),0 plant
same,The grade of pesticide damage/plant: grade 3,[7]; saflufenacil 100 g ai/ha (4×),16 plant
same,tolerance to saflufenacil,"[7]; soybean, saflufenacil, compared with the control vector and CK",basically no tolerance
